Assays:
[1] = molecular target: T1, human mtSSB (Homo sapiens) (UniProt Q04837); experiment: AFM; settings: Anisotropy: 30 mM HEPES-KOH pH 7.5, 1 mM 2-mercaptoethanol, 5 mM MgCl2, 0.01% NP-40, 50 mM NaCl, 20 nM oligo, 20 C. AFM/DREEM: incubation in 20 mM HEPES pH …
T1 sequence: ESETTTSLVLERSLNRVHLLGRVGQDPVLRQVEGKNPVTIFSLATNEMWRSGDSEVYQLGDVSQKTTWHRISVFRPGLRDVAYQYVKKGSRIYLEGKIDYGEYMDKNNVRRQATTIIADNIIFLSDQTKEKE

human mtSSB [2] = molecular target: T2, human mtSSB (Homo sapiens, UniProt Q04837 17-148); experiment: fluorescence anisotropy; 5 mM MgCl2, 50 mM NaCl; tetramers; Anisotropy: 30 mM HEPES-KOH pH 7.5, 1 mM 2-mercaptoethanol, 5 mM MgCl2, 0.01% NP-40, 50 mM NaCl, 20 nM oligo, 20 C. AFM/DREEM: incubation in 20 mM HEPES pH 7.5
T2 sequence: T1 sequence

human mtSSB [3] = molecular target: T2, human mtSSB; experiment: fluorescence anisotropy; 5 mM MgCl2, 50 mM NaCl; Anisotropy: 30 mM HEPES-KOH pH 7.5, 1 mM 2-mercaptoethanol, 5 mM MgCl2, 0.01% NP-40, 50 mM NaCl, 20 nM oligo, 20 C. AFM/DREEM: incubation in 20 mM HEPES pH 7.5
E. coli SSB [4] = molecular target: T3, E. coli SSB (Escherichia coli, UniProt P0AGE0 1-178); experiment: fluorescence anisotropy; 5 mM MgCl2, 50 mM NaCl; tetramers; Hill coefficient 1.84; Anisotropy: 30 mM HEPES-KOH pH 7.5, 1 mM 2-mercaptoethanol, 5 mM MgCl2, 0.01% NP-40, 50 mM NaCl, 20 nM oligo, 20 C. AFM/DREEM: incubation in 20 mM HEPES pH 7.5
T3 sequence (P0AGE0 whole entry): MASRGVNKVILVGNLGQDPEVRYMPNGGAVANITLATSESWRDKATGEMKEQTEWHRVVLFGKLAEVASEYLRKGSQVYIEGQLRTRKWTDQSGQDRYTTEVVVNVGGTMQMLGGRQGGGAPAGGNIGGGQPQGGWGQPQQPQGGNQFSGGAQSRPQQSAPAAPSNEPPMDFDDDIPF

human mtSSB [5] = molecular target: T2, human mtSSB; experiment: fluorescence anisotropy; 5 mM MgCl2, 50 mM NaCl; tetramers; Hill coefficient 2.00; Anisotropy: 30 mM HEPES-KOH pH 7.5, 1 mM 2-mercaptoethanol, 5 mM MgCl2, 0.01% NP-40, 50 mM NaCl, 20 nM oligo, 20 C. AFM/DREEM: incubation in 20 mM HEPES pH 7.5
E. coli SSB [6] = molecular target: T3, E. coli SSB; experiment: AFM/DREEM; 100 mM NaCl; 10 mM Mg(OAc)2 in imaging buffer; 35% one strand wrapped, 65% two; Anisotropy: 30 mM HEPES-KOH pH 7.5, 1 mM 2-mercaptoethanol, 5 mM MgCl2, 0.01% NP-40, 50 mM NaCl, 20 nM oligo, 20 C. AFM/DREEM: incubation in 20 mM HEPES pH 7.5
human mtSSB [7] = molecular target: T2, human mtSSB; experiment: AFM/DREEM; 100 mM NaCl; 10 mM Mg(OAc)2 in imaging buffer; 85% one strand wrapped, 15% two; Anisotropy: 30 mM HEPES-KOH pH 7.5, 1 mM 2-mercaptoethanol, 5 mM MgCl2, 0.01% NP-40, 50 mM NaCl, 20 nM oligo, 20 C. AFM/DREEM: incubation in 20 mM HEPES pH 7.5
[8] = molecular target: the molecule itself; experiment: AFM volume measurement; free mtSSB (8.4 nM tetramers) diluted in 20 mM HEPES (pH 7.5), 100 mM NaCl, deposited on freshly cleaved mica, imaged in air (AC mode); AFM volume converted to molecular weight with a calibration curve

For linear 2030-bp DNA with 37-nt ssDNA gap, the binding signal (KSP/KNSP (gap vs duplex specificity)) [1] was 14500.

With ATGCTAGCTTGGCTGTGACTTTAAACCTGTCGTGCCAGCT (ssDNA, fluorescein on internal T21) [D1-F 40-nt ssDNA] the Kd (human mtSSB [2]) was 1.8 ± 0.9 nM.

B1: D1-F/D2 40-bp dsDNA (dsDNA)
DNA 1: ATGCTAGCTTGGCTGTGACTTTAAACCTGTCGTGCCAGCT
DNA 2: AGCTGGCACGACAGGTTTAAAGTCACAGCCAAGCTAGCAT
modifications: fluorescein on internal T21 of D1
B1: no binding (human mtSSB [3]).

B2: 5'-fluorescein 90-nt oligonucleotide (ssDNA)
DNA: TAATGCTATCACTATTCGTAGACTTGACCACACCTTGTCAGCTCACGCTCCAAATGAAAGTATAGCTAAACAGGTTATTGACCATATGCA
modifications: fluorescein on 5'-terminal T
Work on B2 yielded a Kd (E. coli SSB [4]) of 25.4 ± 1.3 nM and a Kd (human mtSSB [5]) of 14.7 ± 0.5 nM.

B3: 90-nt oligonucleotide (ssDNA)
DNA: B2 DNA
B3: binds (E. coli SSB [6]); binds (human mtSSB [7]).

B4: human mitochondrial single-stranded DNA binding protein (natural protein, UniProt Q04837 17-148, looked up)
chain: T1 sequence
B4 was tested, and the “stoichiometry N” value [8] was 4.

From paper PMC6265486 (Nucleic Acids Research, 2018)
